# Biological target: SARS-CoV-2 RBD-mFc (SARS-CoV-2, reference (Wuhan-Hu-1) by …, UniProt P0DTC2)
# Assay: flow cytometry on cells
binder,measurement,value
"mAb-82 (antibody, V domains shown) VH: QVQLVQSGAEVKKPGSSVKVSCKASGGTFSSYAISWVRQAPGQGLEWMGGIIPIFGTANYAQKFQGRVTITADESTSTAYMELSSLRSEDTAVYYCARGNDDSSGYYSHYYYGMDVWGQGTTVTVSS VL: QTVVTQEPSFSVSPGGTVTLTCGLSSGSVSTSYYPSWYQQTPGQAPRTLIYSTNTRSSGVPDRFSGSILGNKAALTITGAQADDESDYYCVLYMGSGAVFGGGTQLTVL",binding result,binds
